In patent publication US20100196361A1, “Method of inhibition of vascular development using an antibody” (DYAX CORP., priority 2003, published 2010):

T1: human Tie1-Fc fusion protein (Homo sapiens, UniProt P35590)
T1 construct: selected against the Tie1 extracellular domain fused to human Fc or to a histidine purification tag
T1 sequence (P35590 22-759 limits assumed): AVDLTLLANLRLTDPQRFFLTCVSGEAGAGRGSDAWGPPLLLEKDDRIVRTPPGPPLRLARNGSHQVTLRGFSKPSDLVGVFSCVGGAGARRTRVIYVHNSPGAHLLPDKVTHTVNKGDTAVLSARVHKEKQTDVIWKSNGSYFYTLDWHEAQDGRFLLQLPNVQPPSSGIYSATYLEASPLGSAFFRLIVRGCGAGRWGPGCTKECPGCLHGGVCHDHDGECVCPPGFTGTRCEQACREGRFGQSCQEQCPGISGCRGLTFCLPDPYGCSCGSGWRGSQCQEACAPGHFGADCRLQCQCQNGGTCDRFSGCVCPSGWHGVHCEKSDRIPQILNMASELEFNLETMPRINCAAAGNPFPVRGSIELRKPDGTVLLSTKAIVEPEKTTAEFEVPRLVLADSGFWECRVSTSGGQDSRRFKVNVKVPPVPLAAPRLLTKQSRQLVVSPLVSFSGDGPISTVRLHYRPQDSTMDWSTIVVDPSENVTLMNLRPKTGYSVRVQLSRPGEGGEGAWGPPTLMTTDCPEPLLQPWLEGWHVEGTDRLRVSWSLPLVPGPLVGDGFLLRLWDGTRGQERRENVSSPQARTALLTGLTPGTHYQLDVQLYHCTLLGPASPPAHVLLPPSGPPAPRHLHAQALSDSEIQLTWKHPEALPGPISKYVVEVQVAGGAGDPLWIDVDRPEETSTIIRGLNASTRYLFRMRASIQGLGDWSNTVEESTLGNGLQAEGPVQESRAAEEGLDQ

T2: human Tie1 Fc (Homo sapiens, UniProt P35590)
T2 construct: selected against the Tie1 extracellular domain fused to human Fc or to a histidine purification tag
T2 sequence (P35590 22-759 limits assumed): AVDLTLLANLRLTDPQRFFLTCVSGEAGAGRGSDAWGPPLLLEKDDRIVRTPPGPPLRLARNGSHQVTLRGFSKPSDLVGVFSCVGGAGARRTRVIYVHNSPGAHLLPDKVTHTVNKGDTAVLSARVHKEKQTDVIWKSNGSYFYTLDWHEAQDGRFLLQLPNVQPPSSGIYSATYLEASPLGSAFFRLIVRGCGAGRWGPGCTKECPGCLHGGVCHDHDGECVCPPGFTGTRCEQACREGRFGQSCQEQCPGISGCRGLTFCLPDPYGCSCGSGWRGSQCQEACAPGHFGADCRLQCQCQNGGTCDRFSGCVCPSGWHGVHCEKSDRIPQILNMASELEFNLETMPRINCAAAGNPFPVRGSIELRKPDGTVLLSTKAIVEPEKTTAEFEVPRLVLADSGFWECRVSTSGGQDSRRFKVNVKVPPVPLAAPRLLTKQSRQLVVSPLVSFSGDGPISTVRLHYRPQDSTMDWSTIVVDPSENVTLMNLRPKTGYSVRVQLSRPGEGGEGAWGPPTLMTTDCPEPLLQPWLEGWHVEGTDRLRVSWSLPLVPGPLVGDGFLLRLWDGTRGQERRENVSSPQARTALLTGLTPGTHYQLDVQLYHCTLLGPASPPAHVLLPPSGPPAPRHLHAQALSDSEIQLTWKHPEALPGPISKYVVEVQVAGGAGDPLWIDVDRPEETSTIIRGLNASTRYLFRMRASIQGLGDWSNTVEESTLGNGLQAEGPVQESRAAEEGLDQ


Tests used:
[1] = target: T1, human Tie1-Fc fusion protein; test: BIAcore 3000 affinity analysis of Fab and IgG; assay type: binding
Method: Affinity analysis of the Fab and IgGs was performed using surface plasmon resonance using a BIAcore 3000 instrument. For this analysis both dimeric (Tie1-Fc fusion protein) and monomeric (Tie1-HIS) versions of the extracellular domain of the Tie1 were used. The sensor chips used in these experiments were CM5 (dextran-coated) which allow immobilization of proteins to the chip via standard amine coupling chemistries. The concentration of flowed antibody was determined using a surface plasmon resonance based method. Using a high-density protein A sensor chip, under mass transport limited conditions, the response signal is dependent only on the concentration of the antibody in the sample under test. This approach allows a precise determination of the antibody concentration, a parameter important for accurate determination of the KD.
470 RUs of Tie1 HIS protein were coated on a CM5 sensor chip and 5, 20, 100, and 500 nM of the Fab flowed over the chip at four different flow rates ([…]), rates in which the system is not mass transport limited. Kinetic data was typically determined using a range of analyte concentrations and three different chip coating densities. The data from the lowest coating density that gave a good signal was typically chosen, this was often in a range from 50-100 RUs. Using such low coating densities allowed the sensor curves to be fit using BIAEVALUATION™ 3.0 software to a 1:1 model, often even when using a bivalent analyte (IgG or Tie1-Fc fusion protein). For bivalent analytes, when fit to a 1:1 model was not possible, the curves were fit using a 2:1 model.
The anti-Tie1 antibodies described here bind to both human and mouse Tie1 molecules. The binding of the anti-Tie1 Fab to mouse Tie1-Fc fusion protein was compared with the binding of the anti-Tie1 Fab to human Tie1-Fc fusion protein. In both of these experiments the Tie1-Fc fusion protein was immobilized on the sensor chip and the anti Tie-1 Fab served as the analyte. Under these experimental conditions the anti-Tie1 Fab has very similar KD (˜3 nM) values for both the human and mouse Tie1-Fc fusion proteins (Table 9). Under conditions that are likely to mimic those used in the animal efficacy experiments, i.e. Tie1-Fc immobilized to the CM5 sensor chip and anti-Tie1 used as the analyte, the measured KD was 0.2 nM.

human Tie1 Fc = target: T2, human Tie1 Fc; test: BIAcore, Fab over biotinylated Tie1-Fc on streptavidin chip; assay type: binding; conditions: Fab analyte; for kon: 830 RU
Method: Recombinant purified human Tie1-Fc antigen (Stock 2.45 mg/ml) was biotinylated using the EZ-link Sulfo-NHS-SS-Biotin (Pierce, Cat. 21331). The reaction was performed for 2 hours on ice in 50 mM sodium carbonate buffer, pH 9.6, in the presence of a 5-fold molar excess of biotinylating agent and was stopped by the addition of Tris-HCl, pH 7.5 (50 mM final concentration) followed by a 1-hour incubation on ice. Samples were then dialyzed against PBS. The antigen was then diluted 1/100 fold in HBS and was then captured onto a streptavidin chip. This was coated to a density of 830RU (resonance units). All analysis was performed in HBS buffer. The parental Fab E3 and germlined E3 Fab were prepared as described above. A stock solution of 0.587 mg/ml (11740 nM) was diluted 1/587 in HBS+BSA to obtain a stock of 20 nM and the germlined Fab E3 0.025 mg/ml (500 nM) was diluted 1/25 in HBS+BSA to obtain a stock of 20 nM. Serial dilutions were made of each Fab preparation to obtain 10 nM, 5 nM, 2.5 nM, and 1.25 nM solutions. For the association phase samples were injected at 30 μl/min for 4 minutes using kinject program. This was followed by a 10 minutes dissociation phase, any remaining sample was stripped from the Tie1 Fc surface at a flow of 50 μl/min with a single injection of 5 mM NaOH+1M NaCl for 18 seconds. All samples were run and analyzed in duplicate.
Sensorgrams were analyzed using the simultaneous ka/kd fitting program with 1:1 model in the BIAEVALUATION™ software 3.1.

| Molecule | Kon [1] [M⁻¹ s⁻¹] | koff [1] [s⁻¹] | koff (human Tie1 Fc) [s⁻¹] | kon (human Tie1 Fc) [M⁻¹ s⁻¹] |
| --- | --- | --- | --- | --- |
| E3: human anti-Tie1 antibody from phage Fab library, reformatted as IgG; HC variable SEQ ID NO:114, LC variable SEQ ID NO:116 (antibody, V domains shown, IgG constant regions; Synthetically generated peptide) VH: EVQLLESGGGLVQPGGSLRLSCAASGFTFSMYGMVWVRQAPGKGLEWVSVISPSGGNTGYADSVKGRFTISRDNSKNTLYLQVNSLRAEDTAVYYCARAPRGYSYGYYYWGQGTLVTVSSASTKGPSVFPLAPSSKSTSGG VL: DIQMTQSPLSLSASVGDRVTITCRASQGIGHYLAWYQQKPGKVPKLLIYTASTLQSGVPSRFSGSGSGTDFTLTINSLQPEDVATYYCQQFNSYPHTFGQGTRLDIK | 6190 | 3.61e-05 |  |  |
| parental E3 Fab: soluble Fab fragment of the parental E3 anti-Tie1 antibody (antibody, V domains shown) VH: EVQLLESGGGLVQPGGSLRLSCAASGFTFSMYGMVWVRQAPGKGLEWVSVISPSGGNTGYADSVKGRFTISRDNSKNTLYLQVNSLRAEDTAVYYCARAPRGYSYGYYYWGQGTLVTVSSASTKGPSVFPLAPSSKSTSGG VL: DIQMTQSPLSLSASVGDRVTITCRASQGIGHYLAWYQQKPGKVPKLLIYTASTLQSGVPSRFSGSGSGTDFTLTINSLQPEDVATYYCQQFNSYPHTFGQGTRLDIK | 8260 | 4.47e-05 | 0.00061 | 300000 |
| germlined E3 Fab: soluble Fab of E3 with LC framework regions germlined to DPK4; LC variable SEQ ID NO:159 (antibody, V domains shown) VH: EVQLLESGGGLVQPGGSLRLSCAASGFTFSMYGMVWVRQAPGKGLEWVSVISPSGGNTGYADSVKGRFTISRDNSKNTLYLQVNSLRAEDTAVYYCARAPRGYSYGYYYWGQGTLVTVSSASTKGPSVFPLAPSSKSTSGG VL: DIQMTQSPSSLSASVGDRVTITCRASQGIGHYLAWYQQKPGKVPKLLIYTASTLQSGVPSRFSGSGSGTDFTLTISSLQPEDVATYYCQQFNSYPHTFGQGTRLEIK |  |  | 0.00102 | 300000 |
